Assay results reported in US8034783B2, “Prodomain modulators of ADAM 10” (Biozyme, Inc., priority 2006, dated 2011).

System: MMP 1, 2, 3, 9, 13, 14
Assay: Inhibition assays with MMPs
Assay type: biochemical
Experimental: Inhibition assays with MMPs. The fluorescent substrate Dabcyl-GPLGMRGC (Fluorescein)-NH2 (SEQ ID NO 18) (10 μM) in assay buffer containing 50 mM Tris, pH 7.5, 150 mM NaCl, 2 mM CaCl2, 5 μM ZnSO4, and 0.01% Brij-35 was used to monitor enzyme activities. MMPs 1, 2, 3, 9, 13, and 14 (0.1-20 nM) were incubated with substrate in the absence or presence of prodomain (3-30 μM). Fluorescence intensities were measured every 3-5 minutes at an emission wavelength of 530 nm (excitation 485 nm).
Calculation of inhibition constants. The amount of activity was calculated by subtracting the ADAM 10 prodomain control from the ADAM 10 prodomain with enzyme. All inhibition assays were performed at room temperature and the data fit to the following equation using Sigma Plot software:
[formula] where If is fractional inhibition, I is the inhibitor concentration and Ki is the inhibition constant.

B1: C173S ProADAM 10 23-213 (C-terminal His tag): mouse ADAM 10 prodomain 23-213 with cysteine 173 mutated to serine, C-terminal His tag (protein, UniProt O35598 23-213, looked up, variant C173S)
chain: NPLNKYIRHYEGLSYNVDSLHQKHQRAKRAVSHEDQFLLLDFHAHGRQFNLRMKRDTSLFSDEFKVETSNKVLDYDTSHIYTGHIYGEEGSFSHGSVIDGRFEGFIKTRGGTFYIEPAERYIKDRILPFHSVIYHEDDINYPHKYGPQGGSADHSVFERMRKYQMTGVEEGARAHPEKHAASSGPELLRKK
modifications: pro-form C-terminal His tag
notes: mouse ADAM 10 prodomain 23-213 with cysteine 173 mutated to serine, C-terminal His tag
With B1 the “inhibition of matrix metalloproteinases 1, 2, 3, 9, 13 and 14” value (3 μM prodomain) was “not inhibited” and the Ki (read-out: inhibition constant, MMP 1, 2, 3, 9, 13, 14) was > 2000 nM.
